Patent US20130059292A1 (APTAMER SCIENCES, published 2013)

Target: T1, epidermal growth factor receptor (EGFR) (human, UniProt P00533 25-1210)
T1 construct: Endogenous protein in A431 cell lysate; also called EGF receptor
Assay: Co-AP with EGFR aptamer-magnetic agarose beads from EGF-stimulated A431 cell lysate, Western blot
Method: In order to study additional DxSO₄ effects in Co-AP assays, Co-AP experiments were performed with various DxSO₄ concentrations in a binding buffer. […] The mixed solution was washed four times with a lysis buffer. The bound complex was eluted by 20 mM EDTA in 40 mM HEPES containing 0.1M NaCl.

B1: PDK1 (enzyme, human, UniProt O15530 1-556, looked up)
chain: MARTTSQLYDAVPIQSSVVLCSCPSPSMVRTQTESSTPPGIPGGSRQGPAMDGTAAEPRPGAGSLQHAQPPPQPRKKRPEDFKFGKILGEGSFSTVVLARELATSREYAIKILEKRHIIKENKVPYVTRERDVMSRLDHPFFVKLYFTFQDDEKLYFGLSYAKNGELLKYIRKIGSFDETCTRFYTAEIVSALEYLHGKGIIHRDLKPENILLNEDMHIQITDFGTAKVLSPESKQARANSFVGTAQYVSPELLTEKSACKSSDLWALGCIIYQLVAGLPPFRAGNEYLIFQKIIKLEYDFPEKFFPKARDLVEKLLVLDATKRLGCEEMEGYGPLKAHPFFESVTWENLHQQTPPKLTAYLPAMSEDDEDCYGNYDNLLSQFGCMQVSSSSSSHSLSASDTGLPQRSGSNIEQYIHDLDSNSFELDLQFSEDEKRLLLEKQAGGNPWHQFVENNLILKMGPVDKRKGLFARRRQLLLTEGPHLYYVDPVNKVLKGEIPWSQELRPEAKNFKTFFVHTPNRTYYLMDPSGNAHKWCRKIQEVWRQRYQSHPDAAVQ
notes: also called phosphoinositide dependent kinase 1; PDPK1
- binding result: binds
